Results taken from US20050118674A1, “Engineering of Controlled Deamidation Rates in Peptides, Proteins, and Similar Structures” (priority 2003, published 2005).
Where no end group is shown, it is not given here.

Assay: First-order nonenzymatic deamidation of pentapeptides in Tris buffer
Type: physicochemical
Details: 0.15 M Tris HCl; for First-Order Deamidation Halftimes of GlyXxxAsnYyyGly: pH 7.4, 37.0° C., Asn pentapeptides; for First-Order Deamidation Halftimes of GlyXxxGlnYyyGly: pH 7.4, 37.0 ° C., Gln pentapeptides, 52 values measured, rest derived from surface fitting
Procedure: One of the discoveries made was that the sequence dependence of deamidation is much richer and covers a wider range than previously thought. In 37° C., pH 7.4, 0.15 M Tris buffer, the combination of XxxAsnYyy and XxxGlnYyy sequences where Xxx and Yyy are any of the naturally occuring amino acids covers a range from less than 1 day to over 15,000 days with the entire range in between available.
It is based on pentapeptide rates measure in 37° C., pH 7.4, 0.15 M Tris buffer. The applicability of a pentapeptide model to sequence dependence was verified in a separate set of experiments. All values listed in this table are experimental except for the four values in boxes, which were estimated from the rest of the data.
It is also based on pentapeptide rates measure in 37° C., pH 7.4, 0.15 M Tris buffer. In this case, the 52 values shown in bold were measured, and the rest of the values were derived from surface fitting.
Deamidation rates are affected by a wide variety of parameters, including, pH, Temperature, Ionic Strength, and Buffer Ions. These rates are measured under pH and Temperature conditions that are applicable to biological systems. The buffer type and concentration were chosen to minimize ion affects to the extent possible given the experimental limitations. Modification of these conditions will change the rates in Tables 1 and 2. As long as the conditions are not taken to extremes (i.e. high temperature, or strongly acidic or basic conditions) the qualitative sequence dependence should remain the same and the rates reported here can be used with necessary adjustments.

## GlyHisAsnMetGly (GHNMG; printed: GlyHisAsnMetGly)
  First-Order Deamidation Halftimes of GlyXxxAsnYyyGly: 63.1 days

## GlyGlyGlnProGly (GGQPG; printed: GlyGlyGlnProGly)
  First-Order Deamidation Halftimes of GlyXxxGlnYyyGly: 10000 days

## GlyMetGlnAlaGly (GMQAG; printed: GlyMetGlnAlaGly)
  First-Order Deamidation Halftimes of GlyXxxGlnYyyGly: 4400 days

## GlyCysAsnCysGly (GCNCG; printed: GlyCysAsnCysGly)
  First-Order Deamidation Halftimes of GlyXxxAsnYyyGly: 46.0 days

## GlyGlyAsnPheGly (GGNFG; printed: GlyGlyAsnPheGly)
  First-Order Deamidation Halftimes of GlyXxxAsnYyyGly: 64.0 days

## GlyIleGlnIleGly (GIQIG; printed: GlyIleGlnIleGly)
  First-Order Deamidation Halftimes of GlyXxxGlnYyyGly: 6500 days

## GlyPheAsnSerGly (GFNSG; printed: GlyPheAsnSerGly)
  First-Order Deamidation Halftimes of GlyXxxAsnYyyGly: 18.1 days

## GlyGluAsnPheGly (GENFG; printed: GlyGluAsnPheGly)
  First-Order Deamidation Halftimes of GlyXxxAsnYyyGly: 70.2 days

## GlyTrpGlnSerGly (GWQSG; printed: GlyTrpGlnSerGly)
  First-Order Deamidation Halftimes of GlyXxxGlnYyyGly: 6500 days

## GlyValAsnGluGly (GVNEG; printed: GlyValAsnGluGly)
  First-Order Deamidation Halftimes of GlyXxxAsnYyyGly: 64.8 days

## GlyProAsnMetGly (GPNMG; printed: GlyProAsnMetGly)
  First-Order Deamidation Halftimes of GlyXxxAsnYyyGly: 78.4 days

## GlyHisAsnProGly (GHNPG; printed: GlyHisAsnProGly)
  First-Order Deamidation Halftimes of GlyXxxAsnYyyGly: 8440 days

## GlyMetGlnTrpGly (GMQWG; printed: GlyMetGlnTrpGly)
  First-Order Deamidation Halftimes of GlyXxxGlnYyyGly: 9400 days

## GlyIleAsnHisGly (GINHG; printed: GlyIleAsnHisGly)
  First-Order Deamidation Halftimes of GlyXxxAsnYyyGly: 11.5 days

## GlyGlyAsnTyrGly (GGNYG; printed: GlyGlyAsnTyrGly)
  First-Order Deamidation Halftimes of GlyXxxAsnYyyGly: 63.6 days

## GlyMetAsnAlaGly (GMNAG; printed: GlyMetAsnAlaGly)
  First-Order Deamidation Halftimes of GlyXxxAsnYyyGly: 22.1 days

## GlyCysGlnAlaGly (GCQAG; printed: GlyCysGlnAlaGly)
  First-Order Deamidation Halftimes of GlyXxxGlnYyyGly: 4100 days

## GlyMetGlnThrGly (GMQTG; printed: GlyMetGlnThrGly)
  First-Order Deamidation Halftimes of GlyXxxGlnYyyGly: 3800 days

## GlyProGlnLysGly (GPQKG; printed: GlyProGlnLysGly)
  First-Order Deamidation Halftimes of GlyXxxGlnYyyGly: 5500 days

## GlyTyrGlnSerGly (GYQSG; printed: GlyTyrGlnSerGly)
  First-Order Deamidation Halftimes of GlyXxxGlnYyyGly: 6400 days

## GlyTrpAsnArgGly (GWNRG; printed: GlyTrpAsnArgGly)
  First-Order Deamidation Halftimes of GlyXxxAsnYyyGly: 73.9 days

## GlyIleGlnCysGly (GIQCG; printed: GlyIleGlnCysGly)
  First-Order Deamidation Halftimes of GlyXxxGlnYyyGly: 2000 days

## GlyLeuGlnHisGly (GLQHG; printed: GlyLeuGlnHisGly)
  First-Order Deamidation Halftimes of GlyXxxGlnYyyGly: 6100 days

## GlyThrAsnTrpGly (GTNWG; printed: GlyThrAsnTrpGly)
  First-Order Deamidation Halftimes of GlyXxxAsnYyyGly: 72.5 days

## GlyAlaAsnPheGly (GANFG; printed: GlyAlaAsnPheGly)
  First-Order Deamidation Halftimes of GlyXxxAsnYyyGly: 65.6 days

## GlyArgGlnAspGly (GRQDG; printed: GlyArgGlnAspGly)
  First-Order Deamidation Halftimes of GlyXxxGlnYyyGly: 5900 days

## GlyAlaAsnGluGly (GANEG; printed: GlyAlaAsnGluGly)
  First-Order Deamidation Halftimes of GlyXxxAsnYyyGly: 74.1 days

## GlyIleGlnSerGly (GIQSG; printed: GlyIleGlnSerGly)
  First-Order Deamidation Halftimes of GlyXxxGlnYyyGly: 5800 days

## GlyArgGlnValGly (GRQVG; printed: GlyArgGlnValGly)
  First-Order Deamidation Halftimes of GlyXxxGlnYyyGly: 5800 days

## GlyAspGlnIleGly (GDQIG; printed: GlyAspGlnIleGly)
  First-Order Deamidation Halftimes of GlyXxxGlnYyyGly: 6400 days

## GlyProAsnAspGly (GPNDG; printed: GlyProAsnAspGly)
  First-Order Deamidation Halftimes of GlyXxxAsnYyyGly: 48.6 days

## GlyIleGlnValGly (GIQVG; printed: GlyIleGlnValGly)
  First-Order Deamidation Halftimes of GlyXxxGlnYyyGly: 7100 days

## GlyTyrGlnPheGly (GYQFG; printed: GlyTyrGlnPheGly)
  First-Order Deamidation Halftimes of GlyXxxGlnYyyGly: 8700 days

## GlyIleAsnAlaGly (GINAG; printed: GlyIleAsnAlaGly)
  First-Order Deamidation Halftimes of GlyXxxAsnYyyGly: 25.9 days

## GlyProGlnGluGly (GPQEG; printed: GlyProGlnGluGly)
  First-Order Deamidation Halftimes of GlyXxxGlnYyyGly: 6800 days

## GlyIleGlnGluGly (GIQEG; printed: GlyIleGlnGluGly)
  First-Order Deamidation Halftimes of GlyXxxGlnYyyGly: 7700 days

## GlyTyrAsnAspGly (GYNDG; printed: GlyTyrAsnAspGly)
  First-Order Deamidation Halftimes of GlyXxxAsnYyyGly: 28.4 days

## GlyPheGlnGlyGly (GFQGG; printed: GlyPheGlnGlyGly)
  First-Order Deamidation Halftimes of GlyXxxGlnYyyGly: 660 days

## GlyCysGlnGluGly (GCQEG; printed: GlyCysGlnGluGly)
  First-Order Deamidation Halftimes of GlyXxxGlnYyyGly: 5600 days

## GlyGlyGlnMetGly (GGQMG; printed: GlyGlyGlnMetGly)
  First-Order Deamidation Halftimes of GlyXxxGlnYyyGly: 4500 days

## GlyGlyAsnThrGly (GGNTG; printed: GlyGlyAsnThrGly)
  First-Order Deamidation Halftimes of GlyXxxAsnYyyGly: 39.8 days

## GlyLeuAsnThrGly (GLNTG; printed: GlyLeuAsnThrGly)
  First-Order Deamidation Halftimes of GlyXxxAsnYyyGly: 46.1 days

## GlyAspGlnLeuGly (GDQLG; printed: GlyAspGlnLeuGly)
  First-Order Deamidation Halftimes of GlyXxxGlnYyyGly: 6200 days

## GlyArgAsnGlyGly (GRNGG; printed: GlyArgAsnGlyGly)
  First-Order Deamidation Halftimes of GlyXxxAsnYyyGly: 1.00 days

## GlyAspGlnValGly (GDQVG; printed: GlyAspGlnValGly)
  First-Order Deamidation Halftimes of GlyXxxGlnYyyGly: 6600 days

## GlyPheAsnTrpGly (GFNWG; printed: GlyPheAsnTrpGly)
  First-Order Deamidation Halftimes of GlyXxxAsnYyyGly: 102 days

## GlyCysAsnIleGly (GCNIG; printed: GlyCysAsnIleGly)
  First-Order Deamidation Halftimes of GlyXxxAsnYyyGly: 304 days

## GlyThrGlnLysGly (GTQKG; printed: GlyThrGlnLysGly)
  First-Order Deamidation Halftimes of GlyXxxGlnYyyGly: 4800 days

## GlyMetAsnLeuGly (GMNLG; printed: GlyMetAsnLeuGly)
  First-Order Deamidation Halftimes of GlyXxxAsnYyyGly: 113 days

## GlyAlaAsnMetGly (GANMG; printed: GlyAlaAsnMetGly)
  First-Order Deamidation Halftimes of GlyXxxAsnYyyGly: 59.2 days

## GlyGlyGlnLysGly (GGQKG; printed: GlyGlyGlnLysGly)
  First-Order Deamidation Halftimes of GlyXxxGlnYyyGly: 6000 days

## GlyIleGlnPheGly (GIQFG; printed: GlyIleGlnPheGly)
  First-Order Deamidation Halftimes of GlyXxxGlnYyyGly: 8100 days

## GlyCysGlnLeuGly (GCQLG; printed: GlyCysGlnLeuGly)
  First-Order Deamidation Halftimes of GlyXxxGlnYyyGly: 4800 days

## GlyAmCysAsnAspGly (CNDG; not fully specified (N-terminus); printed as GlyAmCysAsnAspGly)
  First-Order Deamidation Halftimes of GlyXxxAsnYyyGly: 32.9 days

## GlyAspAsnAspGly (GDNDG; printed: GlyAspAsnAspGly)
  First-Order Deamidation Halftimes of GlyXxxAsnYyyGly: 29.4 days

## GlyProAsnCysGly (GPNCG; printed: GlyProAsnCysGly)
  First-Order Deamidation Halftimes of GlyXxxAsnYyyGly: 60.0 days

## GlyValGlnGluGly (GVQEG; printed: GlyValGlnGluGly)
  First-Order Deamidation Halftimes of GlyXxxGlnYyyGly: 6500 days

## GlyMetAsnTyrGly (GMNYG; printed: GlyMetAsnTyrGly)
  First-Order Deamidation Halftimes of GlyXxxAsnYyyGly: 74.0 days

## GlyTrpAsnGlyGly (GWNGG; printed: GlyTrpAsnGlyGly)
  First-Order Deamidation Halftimes of GlyXxxAsnYyyGly: 1.75 days

## GlyLysAsnTyrGly (GKNYG; printed: GlyLysAsnTyrGly)
  First-Order Deamidation Halftimes of GlyXxxAsnYyyGly: 96.7 days

## GlyMetAsnMetGly (GMNMG; printed: GlyMetAsnMetGly)
  First-Order Deamidation Halftimes of GlyXxxAsnYyyGly: 56.9 days

## GlyLeuAsnValGly (GLNVG; printed: GlyLeuAsnValGly)
  First-Order Deamidation Halftimes of GlyXxxAsnYyyGly: 294 days

## GlyHisAsnPheGly (GHNFG; printed: GlyHisAsnPheGly)
  First-Order Deamidation Halftimes of GlyXxxAsnYyyGly: 72.1 days

## GlyLysGlnIleGly (GKQIG; printed: GlyLysGlnIleGly)
  First-Order Deamidation Halftimes of GlyXxxGlnYyyGly: 5400 days

## GlyLeuGlnIleGly (GLQIG; printed: GlyLeuGlnIleGly)
  First-Order Deamidation Halftimes of GlyXxxGlnYyyGly: 6500 days

## GlyAmCysAsnIleGly (CNIG; not fully specified (N-terminus); printed as GlyAmCysAsnIleGly)
  First-Order Deamidation Halftimes of GlyXxxAsnYyyGly: 250 days

## GlyLeuGlnLeuGly (GLQLG; printed: GlyLeuGlnLeuGly)
  First-Order Deamidation Halftimes of GlyXxxGlnYyyGly: 6300 days

## GlyValAsnAspGly (GVNDG; printed: GlyValAsnAspGly)
  First-Order Deamidation Halftimes of GlyXxxAsnYyyGly: 33.5 days

## GlyProAsnAlaGly (GPNAG; printed: GlyProAsnAlaGly)
  First-Order Deamidation Halftimes of GlyXxxAsnYyyGly: 31.8 days

## GlyIleAsnThrGly (GINTG; printed: GlyIleAsnThrGly)
  First-Order Deamidation Halftimes of GlyXxxAsnYyyGly: 46.3 days

## GlyCysGlnHisGly (GCQHG; printed: GlyCysGlnHisGly)
  First-Order Deamidation Halftimes of GlyXxxGlnYyyGly: 4200 days

## GlyGlyGlnValGly (GGQVG; printed: GlyGlyGlnValGly)
  First-Order Deamidation Halftimes of GlyXxxGlnYyyGly: 6500 days
